Article PMC4357697, “Sequence-specific cleavage of dsRNA by Mini-III RNase”

Columns and labels:
[1] = target: T1, BsMiniIII Δ10 (Bacillus subtilis ATCC 23857, UniProt O31418 1-143, del86-95); experiment: filter binding; 1 mM Ca2+; affinity not affected vs wild type; Filter binding: 10 mM Tris-HCl pH 7.5, 5 mM NaCl, 1 mM CaCl2, room temperature, 1 h; 0.01 µM labeled 30 bp dsRNA, 0.1-4 µM enzyme; details: protein: recombinant; tags: C-terminal His6; chain copies: 2; label: 32P end label (33P in Methods for the substrate); blunt
T1 sequence: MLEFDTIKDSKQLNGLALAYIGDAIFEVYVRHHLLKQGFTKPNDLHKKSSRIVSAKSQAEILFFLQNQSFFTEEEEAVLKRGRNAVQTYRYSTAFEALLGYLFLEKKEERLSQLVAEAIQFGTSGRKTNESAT

[2] = target: T2, BsMiniIII Δ5 (Bacillus subtilis ATCC 23857, UniProt O31418 1-143, del91-95); experiment: as above; details: protein: recombinant; tags: C-terminal His6; chain copies: 2; label: 32P end label (33P in Methods for the substrate); blunt
T2 sequence: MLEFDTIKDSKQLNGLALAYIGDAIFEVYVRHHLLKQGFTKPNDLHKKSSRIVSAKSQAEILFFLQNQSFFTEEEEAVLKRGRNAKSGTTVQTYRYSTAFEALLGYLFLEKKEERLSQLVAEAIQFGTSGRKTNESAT

B1: 30 bp dsRNA (30f/30r) (dsRNA)
RNA 1: CGAUACCGUCGACCUCGAGGGGGGGCCCGG
RNA 2: CCGGGCCCCCCCUCGAGGUCGACGGUAUCG
Q: Does B1 bind [1]?
A: Result: binds

Q: Does B1 bind [2]?
A: Result: binds
